Data on 94 variants can be found in the supplement of paper PMC10567573.

To fix the notation:
B1: HDAC6 (parent)
chain: QYMNEGELRVLADTYDSVYLHPNS
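Also: lentivirally expressed fusions sorted by FACS into six bins by GFP to DsRed ratio, PSI derived from sequencing read proportions per bin multiplied by bin number.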

The data set covers variants of B1. The data set is described as follows: protein stability index of a GFP-peptide fusion (GPS, HEK-293T) (PSI 1-6); higher = more stable. Conditions: c terminus: a fixed tail appended.
As for QYMNEGELRVLADTYDSVPLHPNS [Y19P], the protein stability index worked out at 2.32.

QYMNEGELRVLADTYDSVKLHPNS [Y19K]: the protein stability index was 1.71.

Regarding QYMNEGELRVLADTYDSVILHPNS [Y19I], the protein stability index worked out at 1.79. The same measure for QYMNEGELRVLADTYDSVFLHPNS [Y19F]: 2.11. QYMNEGELRVLADTYDSVALHPNS [Y19A]: the protein stability index amounted to 2.49. The same measure for QYMNEGELRVLADTYDSVNLHPNS [Y19N]: 2.62; for QYMNEGELRVLADTYDSVSLHPNS [Y19S]: 2.14; for QYMNEGELRVLADTYDSVQLHPNS [Y19Q]: 3. The same measure for QYMNEGELRVLADTYDSVTLHPNS [Y19T]: 3.2. Take QYMNEGELRVLADTYDSVVLHPNS [Y19V]: the protein stability index was 4.09. The same measure for QYMNEGELRVLADTYDSVWLHPNS [Y19W]: 4.22; for QYMNEGELRVLADTYDSVRLHPNS [Y19R]: 1.59. The same measure for QYMNEGELRVLADTYDSVGLHPNS [Y19G]: 3.72; for QYMNEGELRVLADTYDSVELHPNS [Y19E]: 3.03. The same measure for QYMNEGELRVLADTYDSVDLHPNS [Y19D]: 3.32; for QYMNEGELRVLADTYDSVHLHPNS [Y19H]: 2.45. In the case of QYMNEGELRVLADTYDSVMLHPNS [Y19M], the protein stability index came to 1.9. The same measure for QYMNEGELRVLADTYDSVCLHPNS [Y19C]: 2.13. The same measure for QYMNEGELRVLADTYDSVLLHPNS [Y19L]: 2.1; for QYMNEGELRVLADTYDSVYLHPHS [N23H]: 1.94; for QYMNEGELRVLADTYDSVYLHPMS [N23M]: 1.23.

As to QYMNEGELRVLADTYDSVYLHPFS [N23F], the protein stability index amounted to 1.96. The same measure for QYMNEGELRVLADTYDSVYLHPLS [N23L]: 1.6; for QYMNEGELRVLADTYDSVYLHPRS [N23R]: 2.17; for QYMNEGELRVLADTYDSVYLHPPS [N23P]: 1.57.

With QYMNEGELRVLADTYDSVYLHPCS [N23C], the protein stability index was found to be 1.99.

With QYMNEGELRVLADTYDSVYLHPAS [N23A], the protein stability index came to 1.43. The same measure for QYMNEGELRVLADTYDSVYLHPIS [N23I]: 2.31; for QYMNEGELRVLADTYDSVYLHPKS [N23K]: 2.36.

As to QYMNEGELRVLADTYDSVYLHPSS [N23S], the protein stability index was 2.34. The same measure for QYMNEGELRVLADTYDSVYLHPDS [N23D]: 1.8; for QYMNEGELRVLADTYDSVYLHPES [N23E]: 2.69; for QYMNEGELRVLADTYDSVYLHPQS [N23Q]: 1.92.

For the variant QYMNEGELRVLADTYDSVYLHKNS [P22K], the protein stability index was found to be 1.96. The same measure for QYMNEGELRVLADTYDSVYLHINS [P22I]: 2.08; for QYMNEGELRVLADTYDSVYLHGNS [P22G]: 2.27; for QYMNEGELRVLADTYDSVYLHNNS [P22N]: 1.38. The same measure for QYMNEGELRVLADTYDSVYLHLNS [P22L]: 1.3. As for QYMNEGELRVLADTYDSVYLHRNS [P22R], the protein stability index is 1.96. QYMNEGELRVLADTYDSVYLHENS [P22E]: the protein stability index worked out at 2.13.

Consider QYMNEGELRVLADTYDSVYLHYNS [P22Y], for which the protein stability index amounted to 1.41. The same measure for QYMNEGELRVLADTYDSVYLHSNS [P22S]: 1.68; for QYMNEGELRVLADTYDSVYLHFNS [P22F]: 1.82.

For QYMNEGELRVLADTYDSVYLHHNS [P22H], the protein stability index is 2.4. The same measure for QYMNEGELRVLADTYDSVYLHANS [P22A]: 2.15; for QYMNEGELRVLADTYDSVYLHQNS [P22Q]: 1.58. The same measure for QYMNEGELRVLADTYDSVYLHVNS [P22V]: 1.83; for QYMNEGELRVLADTYDSVYLHMNS [P22M]: 2.15. For the variant QYMNEGELRVLADTYDSVYLHCNS [P22C], the protein stability index worked out at 1.85.

On to QYMNEGELRVLADTYDSVYLHDNS [P22D], for which the protein stability index was 2.37. The same measure for QYMNEGELRVLADTYDSVYLHWNS [P22W]: 2.56. The same measure for QYMNEGELRVLADTYDSVYLHTNS [P22T]: 1.66; for QYMNEGELRVLADTYDSVYLGPNS [H21G]: 1.64; for QYMNEGELRVLADTYDSVYLPPNS [H21P]: 1.85. With QYMNEGELRVLADTYDSVYLIPNS [H21I], the protein stability index was 2.25.

For QYMNEGELRVLADTYDSVYLWPNS [H21W], the protein stability index stood at 1.84. For the variant QYMNEGELRVLADTYDSVYLRPNS [H21R], the protein stability index stood at 1.76. The same measure for QYMNEGELRVLADTYDSVYLDPNS [H21D]: 1.84; for QYMNEGELRVLADTYDSVYLQPNS [H21Q]: 2.11. The same measure for QYMNEGELRVLADTYDSVYLAPNS [H21A]: 1.43.

Take QYMNEGELRVLADTYDSVYLEPNS [H21E]: the protein stability index came to 2.33. Consider QYMNEGELRVLADTYDSVYLFPNS [H21F], for which the protein stability index stood at 3.64. The same measure for QYMNEGELRVLADTYDSVYLKPNS [H21K]: 1.92. Consider QYMNEGELRVLADTYDSVYLCPNS [H21C], for which the protein stability index amounted to 3.56. The same measure for QYMNEGELRVLADTYDSVYLSPNS [H21S]: 1.55; for QYMNEGELRVLADTYDSVYLLPNS [H21L]: 1.71; for QYMNEGELRVLADTYDSVYLNPNS [H21N]: 2.21. The same measure for QYMNEGELRVLADTYDSVYLMPNS [H21M]: 1.47.

As for QYMNEGELRVLADTYDSVYLTPNS [H21T], the protein stability index was 1.38. As for QYMNEGELRVLADTYDSVYLYPNS [H21Y], the protein stability index was 2.18. The same measure for QYMNEGELRVLADTYDSVYEHPNS [L20E]: 2.26.

Turning to QYMNEGELRVLADTYDSVYSHPNS [L20S], the protein stability index stood at 3.32. For QYMNEGELRVLADTYDSVYMHPNS [L20M], the protein stability index stood at 2.14. The same measure for QYMNEGELRVLADTYDSVYPHPNS [L20P]: 2.68; for QYMNEGELRVLADTYDSVYIHPNS [L20I]: 1.39. Consider QYMNEGELRVLADTYDSVYFHPNS [L20F], for which the protein stability index was 2. Regarding QYMNEGELRVLADTYDSVYYHPNS [L20Y], the protein stability index worked out at 2.38.

With QYMNEGELRVLADTYDSVYNHPNS [L20N], the protein stability index worked out at 2.42. QYMNEGELRVLADTYDSVYKHPNS [L20K]: the protein stability index was determined as 1.87. The same measure for QYMNEGELRVLADTYDSVYDHPNS [L20D]: 3.27. The same measure for QYMNEGELRVLADTYDSVYWHPNS [L20W]: 1.67; for QYMNEGELRVLADTYDSVYVHPNS [L20V]: 2.22.

For the variant QYMNEGELRVLADTYDSVYQHPNS [L20Q], the protein stability index is 2.58. The same measure for QYMNEGELRVLADTYDSVYHHPNS [L20H]: 3; for QYMNEGELRVLADTYDSVYRHPNS [L20R]: 2.06. The same measure for QYMNEGELRVLADTYDSVYAHPNS [L20A]: 2.54. The same measure for QYMNEGELRVLADTYDSVYTHPNS [L20T]: 2.88.

In the case of QYMNEGELRVLADTYDSVYGHPNS [L20G], the protein stability index is 2.14. The same measure for QYMNEGELRVLADTYDSTYLHPNS [V18T]: 1.77; for QYMNEGELRVLADTYDSWYLHPNS [V18W]: 2.1; for QYMNEGELRVLADTYDSRYLHPNS [V18R]: 2.63. Regarding QYMNEGELRVLADTYDSQYLHPNS [V18Q], the protein stability index was found to be 3.02. For QYMNEGELRVLADTYDSYYLHPNS [V18Y], the protein stability index stood at 2.21.

With QYMNEGELRVLADTYDSSYLHPNS [V18S], the protein stability index was found to be 2.88.
